Assay results reported in publication PMC3498520 (Journal of the American Chemical Society, 2012).

Type: biochemical
Conditions: total turnovers in ART hydroxylation; purified P450, NADPH regeneration system, 12 h

B1: wild-type P450BM3: catalytically self-sufficient fatty acid monooxygenase P450BM3 from Bacillus megaterium (protein, UniProt P14779 1-1049, looked up)
Bifunctional cytochrome …: MTIKEMPQPKTFGELKNLPLLNTDKPVQALMKIADELGEIFKFEAPGRVTRYLSSQRLIKEACDESRFDKNLSQALKFVRDFAGDGLFTSWTHEKNWKKAHNILLPSFSQQAMKGYHAMMVDIAVQLVQKWERLNADEHIEVPEDMTRLTLDTIGLCGFNYRFNSFYRDQPHPFITSMVRALDEAMNKLQRANPDDPAYDENKRQFQEDIKVMNDLVDKIIADRKASGEQSDDLLTHMLNGKDPETGEPLDDENIRYQIITFLIAGHETTSGLLSFALYFLVKNPHVLQKAAEEAARVLVDPVPSYKQVKQLKYVGMVLNEALRLWPTAPAFSLYAKEDTVLGGEYPLEKGDELMVLIPQLHRDKTIWGDDVEEFRPERFENPSAIPQHAFKPFGNGQRACIGQQFALHEATLVLGMMLKHFDFEDHTNYELDIKETLTLKPEGFVVKAKSKKIPLGGIPSPSTEQSAKKVRKKAENAHNTPLLVLYGSNMGTAEGTARDLADIAMSKGFAPQVATLDSHAGNLPREGAVLIVTASYNGHPPDNAKQFVDWLDQASADEVKGVRYSVFGCGDKNWATTYQKVPAFIDETLAAKGAENIADRGEADASDDFEGTYEEWREHMWSDVAAYFNLDIENSEDNKSTLSLQFVDSAADMPLAKMHGAFSTNVVASKELQQPGSARSTRHLEIELPKEASYQEGDHLGVIPRNYEGIVNRVTARFGLDASQQIRLEAEEEKLAHLPLAKTVSVEELLQYVELQDPVTRTQLRAMAAKTVCPPHKVELEALLEKQAYKEQVLAKRLTMLELLEKYPACEMKFSEFIALLPSIRPRYYSISSSPRVDEKQASITVSVVSGEAWSGYGEYKGIASNYLAELQEGDTITCFISTPQSEFTLPKDPETPLIMVGPGTGVAPFRGFVQARKQLKEQGQSLGEAHLYFGCRSPHEDYLYQEELENAQSEGIITLHTAFSRMPNQPKTYVQHVMEQDGKKLIELLDQGAHFYICGDGSQMAPAVEATLMKSYADVHQVSEADARLWLQQLEEKGRYAKDVWAG
TTN: no ART-oxidation activity
